The subject of data set [1] is HIV-1 tat protein. Description: direct filter binding assay of tat to TAR RNA (saturation binding, Scatchard analysis). The following applies: direct filter binding; HIV-1 TAR from saturation binding/Scatchard plot, mutants estimated from half-maximal binding; read-out: Kd (dissociation constant of tat binding). The method, then: The results shown graphically in FIG. 4 are from experiments in which binding reactions (500 ul) contained 40 nMolar^32 P uniformly radiolabelled TAR RNA at a specific activity of 100,000 Ci/mole; 0.5 ug calf thymus DNA; 0.2 ug yeast TRNA; 40 units RNAsin (Promega); 50mm Tris-HCl pH 7.9 and 20 mM KCl. Reaction mixtures were set up on ice and increasing amounts of HIV-1 tat protein were added and the reaction mixtures were filtered through prewashed nitrocellulose filters (Millipore 0.45 uM pore size). The filters were dried and counted by liquid scintillation counting. The fraction of radiolabeled RNA bound was plotted against HIV-1 tat concentration.
Binding was measured by a filter-binding assay as described below under "Method", using monomeric tat protein prepared by CNBr cleavage of a human growth hormone-tat fusion protein expressed in E. coli. Reactions for saturation binding contained labeled TAR RNA [SEQ ID NO: 1] or antisense TAR RNA [SEQ ID NO: 6] at 10 nm and between 0 to 300 nM purified tat protein. Antisense TAR RNA was used as a control, since antisense TAR is unable to form stable complexes with tat in gel-retardation assays (Dingwall et al., 1989).
The stoichiometry of the tat/TAR interaction was determined by varying the TAR RNA concentrations over a wide range, while keeping the tat protein concentration constant near the Kd. For this Scatchard analysis, the tat protein concentration was held constant at 40 nM and the RNA concentration was varied between 7nM and 320 nM. The total amount of labeled RNA was kept constant in the binding reactions, but the specific activity of the RNA was varied. […]
Tat protein was prepared either from beta-galactosidase-tat fusion proteins (6) or from human growth-hormone-tat fusion proteins (85) using an improved method. In brief, inclusion body pellets containing the fusion protein were solubilized in 7M GdHCl, 50 mM Tris-HCl pH8.0, 2 mM EDTA, 2mM DTT and the fusion protein was purified to near homogeneity by ion-exchange chromatography on Q-Sepharose and S-Sepharose (Pharmacia) in buffers containing […], 50 mM Tris-HCl pH8.0, 2mM EDTA, 2mM DTT. The cysteine residues were protected by disulphide-exchange with 20 mM 2-hydroxyethyldisulphide (86), and the protein was cleaved by cyanogen bromide (6). The basic tat protein was then separated from the acidic human growth hormone peptides by ion-exchange chromatography on Q-Sepharose and S-Sepharose in 6M Urea. The protecting groups were then removed from the protein by addition of 10 mM DTT and the protein refolded by stepwise dialysis against 6 m Urea, 5M Urea,3M Urea, 1M Urea and 0M Urea in a buffer containing 50 mM Tris-HCl pH8.0, 100 uM DTT, 10 uM ZnCl2 Tat protein refolded in this manner elutes as a monomer from Superose 12 columns (Pharmacia) and migrates as a single band on polyacrylamide gels. Protein prepared by both methods behaved comparably in binding assays.
A wide variety of parameters affecting the binding of tat protein to TAR RNA were studied and binding conditions were optimized. Binding of tat to TAR has a distinct pH optimum at pH 8.0, but good binding is observed between pH 7.5 and pH 8.5. Tat/TAR complexes are very sensitive to ionic strength. […] Addition of Zn^+2, Cd^+2, Ca^+2, Mg,^+2, Fe^+2 or Fe^+3 ions to the reaction mixtures […]. However, the binding reaction is sensitive to EDTA at greater than 0.1 mM EDTA. Complex formation is also somewhat temperature sensitive. Optimal binding is observed at 0°C. Between 15° C. and 30° C. there is a 30% reduction in complex formation. […]

Data set [2] deals with HIV-1 tat protein. Put plainly: competition filter binding assay, mutant TAR transcripts against labelled HIV-1 TAR RNA (FIG. 7, Table 1). The following applies: 20 nM TAR RNA, 40 nM tat protein.
Method: Binding reactions (500 ul) were set up on ice and contained 80 pM ^32 P-labeled TAR RNA (17,600 dpm, 200 uCi/n mol) and unlabeled TAR RNA to give a final concentration of 20 nM, 0.5 ug calf thymus DNA, 0.2 ug yeast tRNA, 40 units RNAsin (Promega), 50 mM Tris HCl and 20 mM KCl. After addition of competitor RNA, binding was initiated by addition of HIV-1 tat protein to a final concentration of 400 ng/ml (40 nM). The binding reaction mixtures were then filtered under reduced pressure through pre-washed nitrocellulose filters (Millipore 0.45 uM pore size) and filters were dried and counted by liquid scintillation counting.
The fraction of^32 P-labeled TAR RNA bound was plotted against the final concentration of competitor RNA. In these experiments reactions included 20 nM TAR and 40 nM tat protein and increasing amounts of unlabeled competitor RNA from 40 nm to 6 uM. […] In theory, 40 nM tat will bind 50% of the input TAR RNA (D1/2) when the total TAR RNA concentration is 56 nM.
For competition experiments, binding reactions (500 ul) were set up on ice and contained 80 pM ^32 P-labeled TAR RNA (17,600 dpm, 200 uCi/n mol) and unlabeled TAR RNA to give a final concentration of 20 nM, 0.5 ug calf thymus DNA, 0.2 ug yeast TRNA, 40 units RNAsin (Promega), 50 mM Tris-HCl pH 7.9 and 20 mM KCl. After addition of 0 to 6 uM competitor RNA, binding was initiated by addition of HIV- 1 tat protein to a final concentration of 400 ng/mi (40 nM). The binding reaction mixtures were then filtered under reduced pressure through pre-washed nitrocellulose filters (Millipore 0.45 u pore size) and filters were dried and counted by liquid scintillation counting.
KRel is the ratio of the D1/2 values for HIV-1 TAR and competitor RNA.
Data set [3] concerns tat-dependent promoter activity of viral LTR carrying the TAR sequence. Put plainly: trans-activation CAT assay, HeLa cells cotransfected with LTR-CAT test plasmid and tat expression plasmid. In kind it is cell-based. As to conditions: HeLa cells cotransfected with tat plasmid. The text has this:
If tat binding to TAR is necessary for trans-activation, then viral LTRs carrying TAR sequences with low affinities for tat should always have reduced tat-dependent promoter activity in vivo. Site-directed mutagenesis experiments on TAR have shown that trans-activation requires sequences in both the U-rich bulge (10, 11) and the loop sequence (12, 27, 28). These observations have now been extended, using TAR mutations with known affinities for tat in transfection experiments, the results of which are shown in FIG. 8. The experiments used either HeLa cells (FIG. 8a-d) or a constitutive producer of tat, HeLa/C63/tat cells (FIG. 8e-f).
The TAR sequences depicted in FIG. 3 [SEQ ID NO: 1-11] were introduced into a test plasmid, pD5-3-3, which carries a LTR and approximately 300 bases of 5' flanking sequences derived from the infectious proviral clone NL4 (29). The bacterial chloramphenicol acetyltransferase (CAT) gene and SV40 intron and terminator sequence from pSV2-CAT (30) was inserted downstream of TAR by cloning into the HindIII site at +77. Trans-activation was measured either by cotransfection of HeLa cells with the test plasmids and the tat expression plasmid pC63-4-1 (6) (panels a-d in […]), or by transfection of the test plasmids alone into HeLa/C63/tat (clone 9) cells (panels e-h). […]

In data set [4] the target is T1, HIV-1 Tat (Human immunodeficiency virus 1, UniProt P04608 P04608:1-86). Description: filter; D1/2 160 nM; about 2.5-fold lower affinity; complex in EMSA. The following applies: stem-loop with 2-nt bulge. (A gel shift assay detects complexes by their altered migration in electrophoresis.)
The target in data set [5] is T1, HIV-1 Tat. Description: competition; D1/2; unmodified 18+15 duplex 65 nM; 59-mer 18 nM. The following applies: duplex with bulge.
The target of data set [6] is T1, HIV-1 Tat. Description: competition; D1/2; 18+15 duplex probe; 59-mer 18 nM. As to conditions: duplex with UUU bulge, no apical loop.
Data set [7] concerns the target T1, HIV-1 Tat. Description: filter; D1/2 420 nM in table (290 nM in text); no complex in EMSA. As to conditions: stem-loop without bulge.
The target of data set [8] is T1, HIV-1 Tat. Put plainly: competition; D1/2 vs 10 nM 59-mer probe (59-mer 40 nM); 60 nM vs 29-mer probe. As to conditions: hairpin with U-rich bulge and loop.
Data set [9] addresses T1, HIV-1 Tat. Put plainly: filter; no complex in EMSA. As to conditions: stem-loop.
For another data set, the system named is Rev. As to conditions: references 33, 34; read-out: Kd of Rev-RRE complex; cited from earlier work.
The target in data set [10] is T1, HIV-1 Tat. Put plainly: filter; Scatchard 11.8 nM; 50 mM Tris-HCl, 20 mM KCl, on ice, calf thymus DNA and yeast tRNA present. As to conditions: label: 32P; stem-loop with 3-nt U-rich bulge.
Data set [11] deals with T1, HIV-1 Tat. Put plainly: filter; UCU bulge indistinguishable from UUU. The following applies: stem-loop with bulge.
Data set [12] has as its target T1, HIV-1 Tat. Description: filter; D1/2 76 nM; compensatory mutation restores binding. As to conditions: stem-loop with bulge.
The target in data set [13] is T1, HIV-1 Tat. Description: filter; D1/2 66 nM; complex in EMSA. As to conditions: stem-loop with bulge.
Data set [14] concerns the target T1, HIV-1 Tat. Put plainly: filter; D1/2 680 nM; no complex in EMSA. The following applies: stem-loop, upper stem disrupted.

The term Kd denotes the concentration at which binding is half-saturated. Consider “G28 to C28 ; C37 to G37: pair of TAR point mutations expected to have a normal TAR stem/loop structure (GGGUCUCUCUGGUUAGACCAGAUUUGACCCUGGGAGGUCUCUGGCUAACUAGGGAACCC; chemistry not given here)”, for which the Kd in the data set with HIV-1 tat protein [1] was 24 nM. The “KRel (ratio of D1/2 values for HIV-1 TAR and competitor RNA)” value in the data set with HIV-1 tat protein [2] is reported as 0.84. Further, the IC50 with HIV-1 tat protein [2] (read-out: D1/2 (concentration of competitor RNA that reduces binding of HIV-1 tat to HIV-1 TAR RNA to 50%)) amounted to 76 nM. Also, the “trans-activation phenotype” value in data set [3] was “restored to wild-type levels”.

B1: HIV-2 TAR RNA first stem-loop (ssRNA)
RNA: CUGCGGAGAGGCUGGCAGAUUGAGCCCUGGGAGGUUCUCUCCAGCACUAGCAG
The molecule B1 displayed a Kd in the data set with HIV-1 Tat [4] of 30 nM.

B2: 18+15 duplex 4-thioT-25 (dsRNA)
RNA 1: AGCCAGAUUTGAGCAGCU
RNA 2: AGCUGCUCUCUGGCU
modifications: 4-thio-2'-deoxythymidine at U25 (nt 10) [10 (strand 1, 4-thio-2'-deoxythymidine)]
Regarding B2, the IC50 with HIV-1 Tat [5] was 12 nM.

B3: 18-mer + 15-mer TAR duplex (dsRNA)
RNA 1: AGCCAGAUUUGAGCAGCU
RNA 2: AGCUGCUCUCUGGCU
B3 had an IC50 with HIV-1 Tat [6] of 65 nM.

B4: TAR delta U (bulge) (ssRNA)
RNA: GGGUCUCUCUGGUUAGACCAGAGAGCCUGGGAGCUCUCUGGCUAACUAGGGAACCC
On to B4, for which, in the data set with HIV-1 Tat [7], the Kd is > 70 nM.
Molecule GCCAGAUUUGAGCCUGGGAGCUCUCUGGC (ssRNA) [29-mer top part of TAR] came in with an IC50 with HIV-1 Tat [8] of 100 nM.

B5: Antisense TAR (ssRNA)
RNA: GGGUUCCCUAGUUAGCCAGAGAGCUCCCAGGCUCAAAUCUGGUCUAACCAGAGAGACCC
Take B5: in the data set with HIV-1 Tat [9], the Kd is > 140 nM.

B6: RRE: rev-responsive element, 243-nucleotide long sequence within the env gene (nucleic acid)
chain: CAGUGGGAAUAGGAGCUUUGUUCCUUGGGUUCUUGGGAGCAGCAGGAAGCACUAUGGGCGCAGCGUCAAUGACGCUGACGGUACAGGCCAGACAAUUAUUGUCUGGUAUAGUGCAGCAGCAGAACAAUUUGCUGAGGGCUAUUGAGGCGCAACAGCAUCUGUUGCAACUCAAGUCUGGGGCAUCAAGCAGCUCCAGGCAAGAAUCCUGGCUGUGGAAAGAUACCUAAAGGAUCAACAGCUCCU
As for B6, the Kd with Rev is 3 nM.

B7: HIV-1 TAR RNA 59-mer (UUU bulge) (ssRNA)
RNA: GGGUCUCUCUGGUUAGACCAGAUUUGAGCCUGGGAGCUCUCUGGCUAACUAGGGAACCC
In turn, B7 had a Kd in the data set with HIV-1 Tat [10] of 12 nM.

B8: HIV-1 TAR RNA (UCU bulge) (ssRNA)
RNA: GGGUCUCUCUGGUUAGACCAGAUCUGAGCCUGGGAGCUCUCUGGCUAACUAGGGAACCC
modifications: [24]
B8 had a Kd with HIV-1 Tat [11] of 12 nM.

B9: TAR G28 to C28; C37 to G37 (ssRNA)
RNA: GGGUCUCUCUGGUUAGACCAGAUUUGACCCUGGGAGGUCUCUGGCUAACUAGGGAACCC
In the case of B9, the Kd in the data set with HIV-1 Tat [12] is 24 nM.

B10: TAR G to U (loop) (ssRNA)
RNA: GGGUCUCUCUGGUUAGACCAGAUUUGAGCCUUUUAGCUCUCUGGCUAACUAGGGAACCC
Turning to B10, in the data set with HIV-1 Tat [13], the equilibrium dissociation constant (Kd) stood at 25 nM.

B11: TAR G28 to C28 (ssRNA)
RNA: GGGUCUCUCUGGUUAGACCAGAUUUGACCCUGGGAGCUCUCUGGCUAACUAGGGAACCC
Consider B11, for which, in the data set with HIV-1 Tat [14], the Kd is > 100 nM.

(Values after US5821046A, “RNA oligonucleotides that bind HIV tat protein” (RiboTargets Holdings PLC, priority 1990, dated 1998).)
